Article PMC5802723, “Pro-metastatic collagen lysyl hydroxylase dimer assemblies stabilized by Fe^2+-binding” (Nature Communications, 2018)

B1: Human LH2 recombinant protein (residues 33-758), wild type (enzyme, UniProt O00469-2 33-758, looked up)
chain: SIPTDKLLVITVATKESDGFHRFMQSAKYFNYTVKVLGQGEEWRGGDGINSIGGGQKVRLMKEVMEHYADQDDLVVMFTECFDVIFAGGPEEVLKKFQKANHKVVFAADGILWPDKRLADKYPVVHIGKRYLNSGGFIGYAPYVNRIVQQWNLQDNDDDQLFYTKVYIDPLKREAINITLDHKCKIFQTLNGAVDEVVLKFENGKARAKNTFYETLPVAINGNGPTKILLNYFGNYVPNSWTQDNGCTLCEFDTVDLSAVDVHPNVSIGVFIEQPTPFLPRFLDILLTLDYPKEALKLFIHNKEVYHEKDIKVFFDKAKHEIKTIKIVGPEENLSQAEARNMGMDFCRQDEKCDYYFSVDADVVLTNPRTLKILIEQNRKIIAPLVTRHGKLWSNFWGALSPDGYYARSEDYVDIVQGNRVGVWNVPYMANVYLIKGKTLRSEMNERNYFVRDKLDPDMALCRNAREMTLQREKDSPTPETFQMLSPPKGVFMYISNRHEFGRLLSTANYNTSHYNNDLWQIFENPVDWKEKYINRDYSKIFTENIVEQPCPDVFWFPIFSEKACDELVEEMEHYGKWSGGKHHDSRISGGYENVPTDDIHMKQVDLENVWLHFIREFIAPVTLKVFAGYYTKGFALLNFVVKYSPERQRSLRPHHDASTFTINIALNNVGEDFQGGGCKFLRYNCSIESPRKGWSFMHPGRLTHLHEGLPVKNGTRYIAVSFIDP
notes: Human lysyl hydroxylase 2 (LH2), residues 33-758; the printed end at 758 and the residues D689 and L735 fit the 758-residue isoform; also called lysyl hydroxylase 2; source: ExpiCHO cells, transient transfection, secreted

Key:
[1] = molecular target: bovine skin collagen substrate containing no telopeptides (Bovine PureCol) (bovine) (UniProt P02453)
bovine skin collagen substrate containing no telopeptides (Bovine PureCol) (bovine), sequence (P02453 162-1217, chain 1 of 2): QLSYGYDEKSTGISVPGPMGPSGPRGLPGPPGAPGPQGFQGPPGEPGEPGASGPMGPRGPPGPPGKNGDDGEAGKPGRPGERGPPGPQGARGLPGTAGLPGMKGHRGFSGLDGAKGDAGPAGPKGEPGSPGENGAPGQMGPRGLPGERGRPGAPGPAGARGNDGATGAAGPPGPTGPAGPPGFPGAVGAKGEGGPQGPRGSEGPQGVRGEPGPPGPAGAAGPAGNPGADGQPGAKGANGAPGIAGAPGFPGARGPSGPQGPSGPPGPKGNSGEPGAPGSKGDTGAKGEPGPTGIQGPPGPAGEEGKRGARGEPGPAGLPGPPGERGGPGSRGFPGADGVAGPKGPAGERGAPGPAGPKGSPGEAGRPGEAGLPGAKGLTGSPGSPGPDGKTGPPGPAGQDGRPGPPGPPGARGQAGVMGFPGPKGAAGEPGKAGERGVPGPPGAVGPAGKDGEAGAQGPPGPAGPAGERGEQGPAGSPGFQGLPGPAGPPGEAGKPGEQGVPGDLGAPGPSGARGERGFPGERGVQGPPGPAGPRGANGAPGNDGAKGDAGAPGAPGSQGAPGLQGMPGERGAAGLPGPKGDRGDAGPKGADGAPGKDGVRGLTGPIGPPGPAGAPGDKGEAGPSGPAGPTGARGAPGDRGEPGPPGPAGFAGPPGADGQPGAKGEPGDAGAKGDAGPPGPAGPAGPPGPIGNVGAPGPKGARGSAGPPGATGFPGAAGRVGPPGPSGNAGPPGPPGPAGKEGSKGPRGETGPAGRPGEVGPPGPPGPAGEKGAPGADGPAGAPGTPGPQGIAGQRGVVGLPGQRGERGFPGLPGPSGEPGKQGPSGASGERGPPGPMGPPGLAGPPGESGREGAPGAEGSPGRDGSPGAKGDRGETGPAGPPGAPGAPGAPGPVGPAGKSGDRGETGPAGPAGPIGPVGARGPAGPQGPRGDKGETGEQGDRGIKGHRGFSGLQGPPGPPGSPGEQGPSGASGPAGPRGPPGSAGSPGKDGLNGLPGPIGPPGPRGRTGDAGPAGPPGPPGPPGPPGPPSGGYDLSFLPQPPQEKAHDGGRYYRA
bovine skin collagen substrate containing no telopeptides (Bovine PureCol) (bovine), sequence (P02465 80-1117, chain 2 of 2, further chain): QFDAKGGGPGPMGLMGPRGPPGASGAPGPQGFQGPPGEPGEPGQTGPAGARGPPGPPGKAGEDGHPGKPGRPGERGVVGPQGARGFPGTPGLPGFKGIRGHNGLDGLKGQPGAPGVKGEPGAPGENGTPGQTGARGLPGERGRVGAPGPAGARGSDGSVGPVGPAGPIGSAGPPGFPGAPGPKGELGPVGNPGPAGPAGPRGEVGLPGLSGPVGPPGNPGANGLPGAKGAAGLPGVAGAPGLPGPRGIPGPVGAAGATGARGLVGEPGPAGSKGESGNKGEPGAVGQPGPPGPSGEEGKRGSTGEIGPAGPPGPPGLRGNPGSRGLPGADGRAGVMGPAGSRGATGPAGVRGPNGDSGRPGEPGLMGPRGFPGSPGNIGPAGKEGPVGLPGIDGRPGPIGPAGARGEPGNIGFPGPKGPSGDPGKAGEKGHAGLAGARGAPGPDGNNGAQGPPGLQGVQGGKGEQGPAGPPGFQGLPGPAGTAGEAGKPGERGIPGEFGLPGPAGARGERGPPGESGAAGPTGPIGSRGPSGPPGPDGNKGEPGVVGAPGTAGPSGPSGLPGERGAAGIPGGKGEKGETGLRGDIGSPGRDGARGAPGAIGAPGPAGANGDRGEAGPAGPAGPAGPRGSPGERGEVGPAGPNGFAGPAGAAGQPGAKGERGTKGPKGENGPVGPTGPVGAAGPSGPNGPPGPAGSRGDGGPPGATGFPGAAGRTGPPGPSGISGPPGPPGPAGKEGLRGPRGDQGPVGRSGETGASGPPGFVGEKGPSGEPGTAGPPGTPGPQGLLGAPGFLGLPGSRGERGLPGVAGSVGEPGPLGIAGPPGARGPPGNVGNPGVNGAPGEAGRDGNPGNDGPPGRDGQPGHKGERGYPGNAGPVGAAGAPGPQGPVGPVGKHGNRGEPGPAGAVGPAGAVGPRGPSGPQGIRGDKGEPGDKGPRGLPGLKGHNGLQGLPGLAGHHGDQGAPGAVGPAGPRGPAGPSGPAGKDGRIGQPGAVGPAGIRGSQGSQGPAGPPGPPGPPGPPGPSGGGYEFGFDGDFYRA

[2] = molecular target: L230 LH domain (amino acids 680-895), wild type (Acanthamoeba polyphaga mimivirus); test: SEC-MALS; L230 variants, 3 mg/ml, 150 ul, Superdex 75; 20 mM Tris pH 8, 200 mM NaCl, 0.02% sodium azide, room temperature
[3] = molecular target: L230 LH domain (amino acids 680-895), wild type (Acanthamoeba polyphaga mimivirus); test: SAXS; L230 LH domain in solution, three concentrations diluted from 6 mg/ml, merged; SIBYLS beamline
[4] = molecular target: L230 LH domain (amino acids 680-895), wild type (Acanthamoeba polyphaga mimivirus); test: MST; Atto647-labelled L230 (40 nM, 10 ul) mixed with equal volume of unlabelled L230 (8.5 uM-0.5 nM); incubated at 25 °C for 15 min, measured at 20 °C; dimer to monomers
[5] = molecular target: the molecule itself; test: SEC-MALS; Human LH2 proteins, 2 mg/ml, 100 ul, Superdex 200; 20 mM Tris pH 8, 200 mM NaCl, 0.02% sodium azide, room temperature

Molecule | estimated Km for bovine skin collagen in the enzymatic assay (succinate production); achievable collagen concentrations did not saturate activity [1] [µM] | stoichiometry N [2] | stoichiometry N [3] | Kd [4] [nM] | binding result [5]
L230 LH domain (amino acids 680-895) K804E (domain or fragment) | 9.6 |  |  |  | 
L230 LH domain (amino acids 680-895), wild type (domain or fragment) | 2.6 | 2 | 2 | 23.9 | 
B1 |  |  |  |  | binds
